Measured values: patent CN114317447A

Assays:
[1] = biological target: 磷酸二(2-乙基己基)酯蛋白偶联物 (di(2-ethylhexyl) phosphate coupled to bovine serum albumin) (bovine (牛)) (UniProt P02769); assay: indirect ELISA, D-BSA coated on plate, antibody titrated, OD450
[2] = biological target: 磷酸二(2-乙基己基)酯蛋白偶联物 (di(2-ethylhexyl) phosphate coupled to bovine serum albumin) (bovine (牛)) (UniProt P02769); assay: indirect ELISA, D-BSA coated on plate, antibody titrated, OD450; unit from the x axis of Figure 1

Sequence of UniProt P02769 (P02769 25-607 limits assumed, form in doubt): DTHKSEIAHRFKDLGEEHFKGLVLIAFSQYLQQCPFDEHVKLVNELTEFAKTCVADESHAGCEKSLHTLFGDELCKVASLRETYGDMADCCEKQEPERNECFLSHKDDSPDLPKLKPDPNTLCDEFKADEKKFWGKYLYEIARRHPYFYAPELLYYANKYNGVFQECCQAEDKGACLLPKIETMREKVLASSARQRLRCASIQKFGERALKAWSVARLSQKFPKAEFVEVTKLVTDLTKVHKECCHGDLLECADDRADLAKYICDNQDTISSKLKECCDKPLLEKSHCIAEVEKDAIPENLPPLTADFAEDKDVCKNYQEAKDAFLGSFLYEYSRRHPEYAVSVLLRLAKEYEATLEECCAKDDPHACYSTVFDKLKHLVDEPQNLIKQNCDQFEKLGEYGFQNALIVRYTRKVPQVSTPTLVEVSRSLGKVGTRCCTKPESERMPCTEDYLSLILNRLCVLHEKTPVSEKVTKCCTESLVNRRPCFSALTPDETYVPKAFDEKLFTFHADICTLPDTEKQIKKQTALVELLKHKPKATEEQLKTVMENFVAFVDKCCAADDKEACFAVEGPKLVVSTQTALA

- A of the ELISA titer curve (lower asymptote, OD450) [1]: 0.203 OD450
- D of the ELISA titer curve (upper asymptote, OD450) [1]: 2.19 OD450
- C of the ELISA titer curve y=(A-D)/(1+(x/C)^B)+D (midpoint antibody concentration) [2]: 62.4 ng/mL
B1: 磷酸二(2-乙基己基)酯单克隆抗体 (monoclonal antibody against di(2-ethylhexyl) phosphate, secreted by hybridoma cell line 2D5, CCTCC NO: C2021136) (antibody, V domains shown)
VH: QVQLQQSGAELVRPGSSVKISCKASGYAFSSYWMNWVKQRPGQGLEWIGQIYPGDGDTNYNGKFKGKATLTADKSSSTAYMQLSSLTSEDSAVYFCARSDYPWFVYWGQGTLVTVSA
VL: QIVLTQSPAIMSASPGEKVTISCSASSSVSYMYWYQQKPGSSPKPWIYRTSNLASGVPARFSGSGSGTSYSLTISSMEAEDAATYYCQQYHSYPWTFGGGTKLEIK
